Measurements: patent publication US20100303785A1 (RAMOT AT TEL AVIV UNIVERSITY, published 2010)

Molecular target: T1, Recombinant tau containing three tubulin binding repeats (3R) (Homo sapiens, UniProt P10636-5 1-410, limits assumed)
T1 construct: also called Tau protein 3R; 3R-tau
Test: dot blot: peptide on nitrocellulose, incubated with 3R tau, detected with tau5 antibody
Procedure: The membrane was further incubated with 2 μM tau-three microtubule binding domain repeats (1.5 hr, room temperature). The non-specific sites were blocked by soaking in a blocking solution (10 mM Tris, 6 mM NaCl, 0.05% Tween 20) that was supplemented with 5% low-fat milk (1 hr at room temperature). The membrane was incubated with primary antibody (tau5 antibody 1:1000), dissolved in 5% milk in blocking solution (12 hours at 4 C). The membrane was then washed three times with the blocking solution (3×10 min), incubated with secondary antibody conjugated with horseradish peroxidase (HRP) (1 hr at room temperature) and washed again three times with blocking solution (10 min×3). The membrane was incubated with ECL reagent (Western blotting detection system; Amersham Biosciences) for 1 min, covered and exposed Biomax Light Film (Kodak, Rochester, N.Y., USA).

T1 sequence (P10636 other isoform, or with tags, fused parts or gaps limits assumed): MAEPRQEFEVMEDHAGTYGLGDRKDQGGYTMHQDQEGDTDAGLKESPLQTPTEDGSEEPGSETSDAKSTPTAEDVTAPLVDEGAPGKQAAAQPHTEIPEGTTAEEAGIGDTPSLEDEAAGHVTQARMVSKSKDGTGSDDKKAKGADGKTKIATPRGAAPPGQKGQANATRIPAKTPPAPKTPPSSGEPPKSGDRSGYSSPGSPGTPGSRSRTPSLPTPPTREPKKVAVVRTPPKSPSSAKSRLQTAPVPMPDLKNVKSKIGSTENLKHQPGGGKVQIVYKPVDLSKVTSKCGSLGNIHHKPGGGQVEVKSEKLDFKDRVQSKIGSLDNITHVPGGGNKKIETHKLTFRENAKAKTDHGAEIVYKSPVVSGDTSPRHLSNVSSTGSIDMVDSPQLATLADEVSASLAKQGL

B1: vasoactive intestinal peptide VIP (peptide, UniProt P01282 125-152, looked up)
peptide: HSDAVFTDNYTRLRKQMAVKKYLNSILN
notes: Negative control peptide in the dot blot; the assay used the peptide itself; also called VIP peptide; control peptide
B1: no binding.
